Measured values taken from patent US20210139548A1 (published 2021).
Values belong to the binder of their own block, whether it stands above or below them. *1 amine or outer side, *2 acyl side, *3 side chain or, on linkers, in order; H or OH if unused. Side-chain parts run from the residue outwards. The star is where a group is joined. C18 diacid = O=C(O)CCCCCCCCCCCCCCCCC(=O)*; γGlu = O=C(O)[C@H](CCC(=O)[*:2])N[*:1]; Isovaleryl = CC(C)CC(=O)*; AEEA = NCCOCCOCC(=O)O

Assays:
[1] = molecular target: T1, human neuropeptide Y2 receptor (human, UniProt P49146 1-381); assay: RLB 7: apparent Ki of filtrate after incubation at pH 7.1-7.2
T1 construct: whole, on cells; also called hNPY2 receptor; hNPY2-R
T1 sequence (looked up): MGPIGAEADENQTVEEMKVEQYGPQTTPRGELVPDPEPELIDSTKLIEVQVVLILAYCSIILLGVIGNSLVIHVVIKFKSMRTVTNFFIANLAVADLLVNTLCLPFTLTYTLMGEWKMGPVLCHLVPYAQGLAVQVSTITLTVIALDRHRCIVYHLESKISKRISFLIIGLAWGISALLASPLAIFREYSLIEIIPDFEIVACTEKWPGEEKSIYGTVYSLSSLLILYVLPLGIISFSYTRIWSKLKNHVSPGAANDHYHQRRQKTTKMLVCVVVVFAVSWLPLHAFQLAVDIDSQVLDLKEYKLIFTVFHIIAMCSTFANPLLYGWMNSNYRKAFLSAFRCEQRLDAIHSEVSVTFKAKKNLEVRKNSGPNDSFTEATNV
Protocol: (§1) The filtration RLB assay was carried out in 96-well plates in a final volume of 100 μl per well. Freeze-dried test peptides were dissolved in 100% dimethyl sulfoxide (DMSO) to stock solutions of 1 mM and serial dilutions were performed in assay buffer (50 mM HEPES, 5 mM MgCl₂, 1 mM CaCl₂, pH 7.4) containing 0.2% ovalbumin. […] Next, 80 μL membranes (HTS066M, ChemiSCREEN™ Human Neuropeptide Y2 Receptor Membrane Preparation, CHEMICON) were added to each well to give a final protein concentration of 0.5 μg/well. The plates were sealed and incubated at room temperature for 2 hours in a plate shaker set at 400 rpm. The incubation was stopped by vacuum filtration onto 0.5% poly-ethylene amine (PEI) presoaked GF/C filters using a 96-well FilterMate™ harvester (Perkin Elmer) followed by four washes with 300 μl/well ice-cold wash buffer (50 mM HEPES, 500 mM NaCl, pH7.4). Filter plates were then dried for 60 min at room temperature and the bottom of the plates was sealed with backing tape UniFilter-96. Finally, 50 μl/well scintillation counter cocktail (Microscint20, Packard) was added and the radioactivity was counted in the Packard TopCount NXT scintillation counter. IC₅₀ values (the half maximal inhibitory concentration of the agonist) were calculated by nonlinear regression analysis of sigmoidal dose-response curves.
(§2) Peptides (as TFA salts) were weighed out in a filter unit (Mini-UniPrep Syringeless Filter 0.45 μm, Whatman), and 0.1 M sodium diphosphate buffer at pH 6.4 or 7.4, respectively, or 0.2 M TRIS buffer at pH 8.3 was added to achieve 10 mg/ml final concentration. The peptide was (partially) dissolved by shaking the filter unit horizontally at approx. 400 rpm for 2 hours at room temperature. The sample was filtered to remove any insoluble particles.

[2] = molecular target: T1, human neuropeptide Y2 receptor; assay: radioligand competition (125I-PYY(1-36)), hNPY2R membranes
Summary of the method: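 Commercial human Y2 receptor membranes (0.5 μg protein/well) were incubated with peptide for 2 h at room temperature in 50 mM HEPES, 5 mM MgCl₂, 1 mM CaCl₂, pH 7.4, with 0.2% ovalbumin. Bound radioligand was separated on PEI-soaked GF/C filters and counted by scintillation, and IC₅₀ came from nonlinear sigmoidal regression.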

[3] = molecular target: T1, human neuropeptide Y2 receptor; assay: RLB 8: apparent Ki of filtrate after incubation at pH 8.1-8.2
Protocol: as §1, §2

[4] = molecular target: T1, human neuropeptide Y2 receptor; assay: ratio of apparent Ki, pH 6.1-6.2 over pH 7.1-7.2
Protocol: as §1, §2

[5] = molecular target: T1, human neuropeptide Y2 receptor; assay: ratio of apparent Ki, pH 8.1-8.2 over pH 7.1-7.2
Protocol: as §1, §2

[6] = molecular target: T1, human neuropeptide Y2 receptor; assay: RLB 6: apparent Ki of filtrate after incubation at pH 6.1-6.2
human NPY4 receptor = human NPY4 receptor (human, UniProt P50391 1-375); assay: cell-based or functional assay
human NPY1 receptor = molecular target: T2, human NPY1 receptor (human, UniProt P25929 1-384); assay: cell-based or functional assay
T2 sequence (looked up): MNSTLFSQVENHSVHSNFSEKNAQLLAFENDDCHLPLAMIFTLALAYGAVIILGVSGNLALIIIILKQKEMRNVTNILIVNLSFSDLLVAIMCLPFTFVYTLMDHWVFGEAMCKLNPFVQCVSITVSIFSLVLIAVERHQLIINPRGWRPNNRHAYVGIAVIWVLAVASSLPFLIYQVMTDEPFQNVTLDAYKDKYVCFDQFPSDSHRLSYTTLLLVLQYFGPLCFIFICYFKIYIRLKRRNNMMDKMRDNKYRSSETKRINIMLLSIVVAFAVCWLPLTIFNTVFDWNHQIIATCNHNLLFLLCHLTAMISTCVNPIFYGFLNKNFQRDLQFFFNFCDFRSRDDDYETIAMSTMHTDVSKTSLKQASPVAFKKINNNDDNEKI

human NPY5 receptor = molecular target: T3, human NPY5 receptor (human, UniProt Q15761 1-445); assay: cell-based or functional assay
T3 sequence (looked up): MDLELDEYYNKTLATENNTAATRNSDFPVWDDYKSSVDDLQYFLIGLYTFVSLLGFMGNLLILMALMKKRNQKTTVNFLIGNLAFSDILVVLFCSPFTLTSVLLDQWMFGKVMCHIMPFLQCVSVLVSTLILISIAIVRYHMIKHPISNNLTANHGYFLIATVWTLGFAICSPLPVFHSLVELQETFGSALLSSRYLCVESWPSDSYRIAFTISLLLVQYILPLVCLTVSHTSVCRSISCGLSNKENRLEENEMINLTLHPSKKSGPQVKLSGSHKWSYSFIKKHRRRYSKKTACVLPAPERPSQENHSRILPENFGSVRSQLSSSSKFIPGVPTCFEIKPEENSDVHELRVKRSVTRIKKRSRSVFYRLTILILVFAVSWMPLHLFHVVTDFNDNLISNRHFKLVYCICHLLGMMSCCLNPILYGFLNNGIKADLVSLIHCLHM

[7] = molecular target: T1, human neuropeptide Y2 receptor; assay: cell-based or functional assay
[8] = molecular target: T1, human neuropeptide Y2 receptor; assay: radioligand competition (125I-PYY(1-36)), hY2R membranes; DMSO stock
Protocol: as §1

Sequence of human NPY4 receptor (P50391 whole entry): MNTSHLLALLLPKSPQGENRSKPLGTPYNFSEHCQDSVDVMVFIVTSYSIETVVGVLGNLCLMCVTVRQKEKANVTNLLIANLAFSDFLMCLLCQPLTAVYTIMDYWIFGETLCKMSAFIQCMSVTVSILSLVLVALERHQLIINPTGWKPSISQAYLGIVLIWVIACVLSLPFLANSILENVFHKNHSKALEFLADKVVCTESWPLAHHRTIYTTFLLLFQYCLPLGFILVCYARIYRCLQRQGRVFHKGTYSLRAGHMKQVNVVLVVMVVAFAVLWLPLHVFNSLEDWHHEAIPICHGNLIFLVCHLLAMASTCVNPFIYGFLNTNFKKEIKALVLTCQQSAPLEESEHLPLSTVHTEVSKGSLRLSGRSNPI

B1: Compound 188 (peptide)
peptide: Isovaleryl-APEK([AEEA-AEEA-γGlu-C18 diacid])PEEDAEPEELQRYYVSLRHYYNWLTRQRY-NH2
SMILES: CC(C)CC(=O)N[C@@H](C)C(=O)N1CCC[C@H]1C(=O)N[C@@H](CCC(=O)O)C(=O)N[C@@H](CCCCNC(=O)COCCOCCNC(=O)COCCOCCNC(=O)CC[C@H](NC(=O)CCCCCCCCCCCCCCCCC(=O)O)C(=O)O)C(=O)N1CCC[C@H]1C(=O)N[C@@H](CCC(=O)O)C(=O)N[C@@H](CCC(=O)O)C(=O)N[C@@H](CC(=O)O)C(=O)N[C@@H](C)C(=O)N[C@@H](CCC(=O)O)C(=O)N1CCC[C@H]1C(=O)N[C@@H](CCC(=O)O)C(=O)N[C@@H](CCC(=O)O)C(=O)N[C@@H](CC(C)C)C(=O)N[C@@H](CCC(N)=O)C(=O)N[C@@H](CCCNC(=N)N)C(=O)N[C@@H](Cc1ccc(O)cc1)C(=O)N[C@@H](Cc1ccc(O)cc1)C(=O)N[C@H](C(=O)N[C@@H](CO)C(=O)N[C@@H](CC(C)C)C(=O)N[C@@H](CCCNC(=N)N)C(=O)N[C@@H](Cc1c[nH]cn1)C(=O)N[C@@H](Cc1ccc(O)cc1)C(=O)N[C@@H](Cc1ccc(O)cc1)C(=O)N[C@@H](CC(N)=O)C(=O)N[C@@H](Cc1c[nH]c2ccccc12)C(=O)N[C@@H](CC(C)C)C(=O)N[C@H](C(=O)N[C@@H](CCCNC(=N)N)C(=O)N[C@@H](CCC(N)=O)C(=O)N[C@@H](CCCNC(=N)N)C(=O)N[C@@H](Cc1ccc(O)cc1)C(N)=O)[C@@H](C)O)C(C)C
- Ki [2]: 3.09 nM
- EC50 (HTRF cAMP Gi assay) (human NPY4 receptor): > 5000 nM
- EC50 (HTRF cAMP Gi assay) (human NPY1 receptor): > 5000 nM
- EC50 (HTRF cAMP Gi assay) (human NPY5 receptor): > 5000 nM
- EC50 (HTRF cAMP Gi assay) [7]: 0.106 nM

Binder: Isovaleryl-APAK([AEEA-AEEA-γGlu-C18 diacid])PEEDASPEELQRYYVSLRHYYNWLTRQRY-NH2 [Compound 203]
- Ki [1]: 11.1 nM
- Ki [2]: 0.75 nM
- Ki [6]: 4.6 nM
- Ki [8]: 3 nM

Binder: Isovaleryl-APEK([AEEA-AEEA-γGlu-C18 diacid])PEEDASPEEIQRYYVSLRHYYNWLTRQRY-NH2 [Compound 84]
- Ki [2]: 1.19 nM
- Ki [6]: 6.6 nM
- Ki [8]: 3.5 nM

Results, then the binder that gave them:

- Ki [1]: 6.3 nM
- Ki [2]: 0.63 nM
- Ki [3]: 6.3 nM
- RLB ratio (RLB6/RLB7) [4]: 1
- RLB ratio (RLB8/RLB7) [5]: 1
- Ki [6]: 6.3 nM
- EC50 (HTRF cAMP Gi assay) (human NPY4 receptor): > 5000 nM
- EC50 (HTRF cAMP Gi assay) (human NPY1 receptor): > 5000 nM
- EC50 (HTRF cAMP Gi assay) (human NPY5 receptor): > 5000 nM
- EC50 (HTRF cAMP Gi assay) [7]: 0.15 nM
- Ki [8]: 4.9 nM
Binder: Isovaleryl-APAK([AEEA-AEEA-γGlu-C18 diacid])PEEDASPEEIQRYYVSLRHYYNWLTRQRY-NH2 [Compound 23]

- Ki [2]: 1.96 nM
- EC50 (HTRF cAMP Gi assay) (human NPY4 receptor): > 5000 nM
- EC50 (HTRF cAMP Gi assay) (human NPY1 receptor): > 5000 nM
- EC50 (HTRF cAMP Gi assay) (human NPY5 receptor): > 5000 nM
- EC50 (HTRF cAMP Gi assay) [7]: 0.107 nM
Binder: Isovaleryl-APEK([AEEA-AEEA-γGlu-C18 diacid])PEEDATPEELQKYYVSLRHYYNWLTRQRY-NH2 [Compound 231]

- Ki [1]: 3.1 nM
- Ki [2]: 0.24 nM
- Ki [3]: 2.5 nM
- RLB ratio (RLB6/RLB7) [4]: 1.1
- RLB ratio (RLB8/RLB7) [5]: 0.8
- Ki [6]: 3.4 nM
- EC50 (HTRF cAMP Gi assay) (human NPY4 receptor): > 5000 nM
- EC50 (HTRF cAMP Gi assay) (human NPY1 receptor): > 5000 nM
- EC50 (HTRF cAMP Gi assay) (human NPY5 receptor): > 5000 nM
- EC50 (HTRF cAMP Gi assay) [7]: 0.119 nM
- Ki [8]: 2 nM
Binder: Isovaleryl-APEK([AEEA-AEEA-γGlu-C18 diacid])PEADASPEEIQRYYVSLRHYYNWLTRQRY-NH2 [Compound 53]

- Ki [1]: 9.3 nM
- Ki [2]: 0.66 nM
- Ki [3]: 7.5 nM
- RLB ratio (RLB6/RLB7) [4]: 0.8
- RLB ratio (RLB8/RLB7) [5]: 0.8
- Ki [6]: 7.7 nM
- EC50 (HTRF cAMP Gi assay) (human NPY4 receptor): > 5000 nM
- EC50 (HTRF cAMP Gi assay) (human NPY1 receptor): > 5000 nM
- EC50 (HTRF cAMP Gi assay) (human NPY5 receptor): > 5000 nM
- EC50 (HTRF cAMP Gi assay) [7]: 0.173 nM
- Ki [8]: 6 nM
Binder: Isovaleryl-APAK([AEEA-AEEA-γGlu-C18 diacid])PEEDATPEELQRYYVSLRHYYNWLTRQRY-NH2 [Compound 106]

- Ki [1]: 4.4 nM
- Ki [2]: 0.29 nM
- Ki [3]: 2.3 nM
- RLB ratio (RLB6/RLB7) [4]: 0.9
- RLB ratio (RLB8/RLB7) [5]: 0.5
- Ki [6]: 3.8 nM
- Ki [8]: 4.6 nM
B2: Compound 29 (peptide)
peptide: Isovaleryl-APEK([AEEA-AEEA-γGlu-C18 diacid])PEAPASPEELQRYYVELRHYYNWLTRQRY-NH2
SMILES: CC(C)CC(=O)N[C@@H](C)C(=O)N1CCC[C@H]1C(=O)N[C@@H](CCC(=O)O)C(=O)N[C@@H](CCCCNC(=O)COCCOCCNC(=O)COCCOCCNC(=O)CC[C@H](NC(=O)CCCCCCCCCCCCCCCCC(=O)O)C(=O)O)C(=O)N1CCC[C@H]1C(=O)N[C@@H](CCC(=O)O)C(=O)N[C@@H](C)C(=O)N1CCC[C@H]1C(=O)N[C@@H](C)C(=O)N[C@@H](CO)C(=O)N1CCC[C@H]1C(=O)N[C@@H](CCC(=O)O)C(=O)N[C@@H](CCC(=O)O)C(=O)N[C@@H](CC(C)C)C(=O)N[C@@H](CCC(N)=O)C(=O)N[C@@H](CCCNC(=N)N)C(=O)N[C@@H](Cc1ccc(O)cc1)C(=O)N[C@@H](Cc1ccc(O)cc1)C(=O)N[C@H](C(=O)N[C@@H](CCC(=O)O)C(=O)N[C@@H](CC(C)C)C(=O)N[C@@H](CCCNC(=N)N)C(=O)N[C@@H](Cc1c[nH]cn1)C(=O)N[C@@H](Cc1ccc(O)cc1)C(=O)N[C@@H](Cc1ccc(O)cc1)C(=O)N[C@@H](CC(N)=O)C(=O)N[C@@H](Cc1c[nH]c2ccccc12)C(=O)N[C@@H](CC(C)C)C(=O)N[C@H](C(=O)N[C@@H](CCCNC(=N)N)C(=O)N[C@@H](CCC(N)=O)C(=O)N[C@@H](CCCNC(=N)N)C(=O)N[C@@H](Cc1ccc(O)cc1)C(N)=O)[C@@H](C)O)C(C)C
